From US8911422B2, “Micro-needle device” (Hisamitsu Pharmaceutical Co., Inc., priority 2010, dated 2014) come the findings set out here.

The test system of this series is rats. Nature of the series: in vivo injection with micro-needle device (Example 2), availability. Details: species or system rat. The following applies: coating range 200 μm. As for the experimental part: A micro-needle device similar to that of Example 1 was used to perform in vivo injection (rats) to determine availability. Here, 14C-OVA was coated on each of the micro-needles, and a coating range thereof was 200 μm in height including the top of the micro-needle concerned (that is, the range H=200 μm in FIG. 3 (c)). The 14C-OVA coated on the micro-needle device was about 100 μg in total, and pullulan, that is, a coating carrier, was about 100 μg in total.
On injection, used was a spring impact-type applicator capable of giving an impact due to the elastic energy of 0.4 J/cm^2 to the back face of the micro-needle device. The elastic energy of the spring impact-type applicator is determined by the above-described formula (I). A spring constant for yielding the elastic energy of 0.4 J/cm^2 was 0.569 N/mm. In order to determine the availability, a Geiger-Muller (GM) counter tube was used to count radiant rays, and the measurement result was applied to a previously prepared calibration curve to determine an initially coated quantity and a quantity remaining on the micro-needle device peeled after puncture. Then, the remaining quantity was divided by the initially coated quantity to determine the availability.

B1: 14C-OVA (protein, UniProt P01012 2-386, looked up)
Ovalbumin: GSIGAASMEFCFDVFKELKVHHANENIFYCPIAIMSALAMVYLGAKDSTRTQINKVVRFDKLPGFGDSIEAQCGTSVNVHSSLRDILNQITKPNDVYSFSLASRLYAEERYPILPEYLQCVKELYRGGLEPINFQTAADQARELINSWVESQTNGIIRNVLQPSSVDSQTAMVLVNAIVFKGLWEKAFKDEDTQAMPFRVTEQESKPVQMMYQIGLFRVASMASEKMKILELPFASGTMSMLVLLPDEVSGLEQLESIINFEKLTEWTSSNVMEERKIKVYLPRMKMEEKYNLTSVLMAMGITDVFSSSANLSGISSAESLKISQAVHAAHAEINEAGREVVGSAEAGVDAASVSEEFRADHPFLFCIKHIATNAVLFFGRCVSP
modifications: 14C radiolabel
notes: 14C-OVA coated on the micro-needles with pullulan as coating carrier
Take B1: the availability runs as follows: (impact 0.4 J/cm^2 given once) 38%; (impact 0.4 J/cm^2 once, then pushed one minute at 1 kg/patch) 42%; (impact 0.4 J/cm^2 once, then pushed one minute at 3 kg/patch) 58%.
